# Where a chain is given by its changes, count along the chain named.
# B1: CR6261 germline variant sCDR H2/sCDR H3, soluble IgG (antibody, V domains shown)
# VH: QVQLVQSGAEVKKPGSSVKVSCKASGGTFSSYAISWVRQAPGQGLEWMGGIIPIFGTTKYAPKFQGRVTITADESTSTAYMELSSLRSEDTAVYYCAKHMGYQVRETMDVWGKGTTVTVSS
# VL: QSVLTQPPSVSAAPGQKVTISCSGSSSNIGNNYVSWYQQLPGTAPKLLIYDNNKRPSGIPDRFSGSKSGTSATLGITGLQTGDEADYYCGTWDSSLSAYVVFGGGTKLTVL
# B2: CR6261 germline variant sCDR H1, soluble IgG (antibody, V domains shown)
# VH: B1 VH with T28P, S30R, T58A, K59N, P62Q, V104L
# VL: B1 VL
# B3: CR6261 germline variant sCDR H1/sFR3, soluble IgG (antibody, V domains shown)
# VH: QVQLVQSGAEVKKPGSSVKVSCKASGGPFRSYAISWVRQAPGQGLEWMGGIIPIFGTANYAQKFQGRVTITADDFAGTVYMELSSLRSEDTAVYYCAKHMGYQLRETMDVWGKGTTVTVSS
# VL: B1 VL
# B4: CR6261 germline variant sCDR H2, soluble IgG (antibody, V domains shown)
# VH: B1 VH with V104L
# VL: B1 VL
# B5: CR6261 germline variant sCDR H3, soluble IgG (antibody, V domains shown)
# VH: B1 VH with T58A, K59N, P62Q
# VL: B1 VL
# B6: CR6261 germline variant sCDR H1/sCDR H2, soluble IgG (antibody, V domains shown)
# VH: B1 VH with T28P, S30R, V104L
# VL: B1 VL
# B7: CR6261 germline variant sCDR H1/sCDR H2/sFR3, soluble IgG (antibody, V domains shown)
# VH: B3 VH with A58T, N59K, Q62P
# VL: B1 VL
# B8: CR6261 germline variant sFR3/sCDR H3, soluble IgG (antibody, V domains shown)
# VH: B3 VH with P28T, R30S, L104V
# VL: B1 VL
# Biological target: H1 A/New Caledonia/20/1999 haemagglutinin, wild-type trimeric protein (Influenza A virus A/New …, UniProt Q6WG00, strain)
# Test: ELISA
Binder,ELISA endpoint dilution titre [µg/mL],binding result
B1,0.15,–
B2,0.15,–
B3,0.00133,–
B4,> 100,no binding (tested: >100 µg ml^-1)
B5,> 100,no binding (tested: >100 µg ml^-1)
B6,0.15,–
B7,0.00133,–
B8,> 100,no binding (tested: >100 µg ml^-1)
